Laboratory results: paper PMC12339945

Target: HIV-1 Tat (E. coli, purified) (HIV-1, UniProt P12506)
Test: NMR titration (1D 1H imino)
Conditions: protein: recombinant; tags: N-terminal His6, stated as cleaved after purification

Q: Does GGGAGCUUGAUCCCGGAAACGGUCGAUCGCUCCC (structured_RNA) [HIV Tat RNA aptamer (unlabeled)] bind?
A: Result: binds
